Test results from publication PMC2515335 (2008).

Molecular target: T1, Importin-β3 (Homo sapiens, UniProt O00410)
T1 chain: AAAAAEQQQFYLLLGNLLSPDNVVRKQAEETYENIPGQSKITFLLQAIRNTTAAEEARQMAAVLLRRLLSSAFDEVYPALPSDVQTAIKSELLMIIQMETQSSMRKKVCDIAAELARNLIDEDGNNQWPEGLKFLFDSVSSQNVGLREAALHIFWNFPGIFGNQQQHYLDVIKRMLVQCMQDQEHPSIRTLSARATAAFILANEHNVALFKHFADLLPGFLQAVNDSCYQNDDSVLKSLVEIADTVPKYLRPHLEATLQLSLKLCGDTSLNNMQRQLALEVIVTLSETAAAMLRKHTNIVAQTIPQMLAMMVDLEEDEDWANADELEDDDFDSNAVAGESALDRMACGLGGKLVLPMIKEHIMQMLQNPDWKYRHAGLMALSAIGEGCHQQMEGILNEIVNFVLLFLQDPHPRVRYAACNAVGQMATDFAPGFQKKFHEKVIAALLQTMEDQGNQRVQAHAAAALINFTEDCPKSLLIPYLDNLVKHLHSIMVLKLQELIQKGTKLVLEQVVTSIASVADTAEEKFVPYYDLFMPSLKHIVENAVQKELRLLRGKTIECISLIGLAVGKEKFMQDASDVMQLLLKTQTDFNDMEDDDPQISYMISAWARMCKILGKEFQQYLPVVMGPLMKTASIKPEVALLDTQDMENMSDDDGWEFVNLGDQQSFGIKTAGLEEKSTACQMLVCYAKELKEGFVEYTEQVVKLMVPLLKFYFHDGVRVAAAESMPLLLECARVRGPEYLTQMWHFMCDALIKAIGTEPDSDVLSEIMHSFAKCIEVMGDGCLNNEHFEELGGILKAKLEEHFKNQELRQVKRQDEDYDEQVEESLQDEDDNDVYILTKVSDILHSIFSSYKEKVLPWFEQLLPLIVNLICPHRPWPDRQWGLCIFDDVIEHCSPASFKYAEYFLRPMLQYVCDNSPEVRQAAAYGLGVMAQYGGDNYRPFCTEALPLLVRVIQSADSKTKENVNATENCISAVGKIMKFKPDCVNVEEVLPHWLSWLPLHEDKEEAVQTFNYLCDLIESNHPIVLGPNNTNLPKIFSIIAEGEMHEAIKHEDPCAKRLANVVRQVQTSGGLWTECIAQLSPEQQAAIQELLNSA
Experiment: native PAGE gel-shift mobility assay/fluorimetry

B1: Vpr 1-96 (protein)
chain: MEQAPEDQGPQREPYNEWTLELLEELKSEAVRHFPRIWLHNLGQHIYETYGDTWAGVEAIIRILQQLLFIHFRIGCRHSRIGVTRQRRARNGASRS
Question: With B1 as the binder, how does the Kd read?
Answer: 660 nM
